What all share (assay): ITC; VP-ITC or ITC200; 25°C; ITC buffer (50 mM Tris/HCl, pH 7.5, 150 mM NaCl, 2 mM DTT, 5% glycerol); SUMOs titrated into a solution of the RNF4 construct or peptide (legends of Figures 1B, 2B); 20–30 injections up to 2–3-fold molar excess; values averaged from two to six titrations
Assay [1] has as its target RNF4 1–125 (RNF4-SIM domain, wt) (human) (UniProt P78317).
Assay [2] addresses RNF4-SIM2/3 peptide (human).
For assay [3], the target named is synthetic tandem PIAS1 SIM peptide.

pKd: −log10 of the molar value.

Chain of RNF4 1–125 (RNF4-SIM domain, wt) (human) (P78317 1-125): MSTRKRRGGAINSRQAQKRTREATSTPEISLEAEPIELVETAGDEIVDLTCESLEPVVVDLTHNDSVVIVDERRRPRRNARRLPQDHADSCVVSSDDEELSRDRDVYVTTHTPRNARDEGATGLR
Chain of RNF4-SIM2/3 peptide (human) (P78317 43-65): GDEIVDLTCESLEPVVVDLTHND

Consider “linear di-SUMO1 (2×SUMO1-ΔN15) (from UniProt P63165 16-101; P63165 16-101)”, for which the pKd (usually −log10 of the Kd, conventionally taken in molar units) in assay [1] was 4.77.

Turning to “linear tetra-SUMO1 (4×SUMO1-ΔN15) (from UniProt P63165 16-101; P63165 16-101; P63165 16-101; P63165 16-101)”, the pKd in assay [1] is 5.37.

With “linear tetra-SUMO2 (4×SUMO2-ΔN11) (from UniProt P61956 12-95; P61956 12-95; P61956 12-95; P61956 12-95)”, in assay [1], the pKd is 5.80.

“linear di-SUMO2 (2×SUMO2-ΔN11) (from UniProt P61956 12-95; P61956 12-95)”: the pKd was 4.85 in assay [1], 5.07 in assay [2] and 5.42 in assay [3].

These data come from PMC3901395, “Multivalent interactions of the SUMO-interaction motifs in RING finger protein 4 determine the specificity for chains of the SUMO” (Biochemical Journal, 2013).
